This note sets out measurements from publication PMC9022995, “Sequence and structural variations determining the recruitment of WNK kinases to the KLHL3 E3 ligase” (Biochemical Journal, 2022).

The target in assay [1] is T1, KLHL3 Kelch domain (GST-KLHL3, a.a. 298–587) (Homo sapiens, UniProt Q9UH77).
T1 construct: using KLHL3 Kelch domain (GST-KLHL3, a.a. 298–587, MRC-PPU plasmid DU44387); host or cells: E. coli BL21
T1 sequence (Q9UH77 298-587): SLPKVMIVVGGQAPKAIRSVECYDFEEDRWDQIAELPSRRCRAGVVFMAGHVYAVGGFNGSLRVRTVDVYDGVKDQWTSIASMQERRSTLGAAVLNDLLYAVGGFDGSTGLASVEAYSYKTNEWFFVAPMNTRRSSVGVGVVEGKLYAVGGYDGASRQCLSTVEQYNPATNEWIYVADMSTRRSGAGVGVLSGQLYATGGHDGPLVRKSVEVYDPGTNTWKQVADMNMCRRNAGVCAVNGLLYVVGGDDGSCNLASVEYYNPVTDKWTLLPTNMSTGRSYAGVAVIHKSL
The assay can be described thus: Fluorescence polarisation assay for the binding of WNK3 variants. Conditions: 25°C; for Kd: GST-KLHL3 a.a. 298–587, 50 mM Tris–HCl pH 7.5, 150 mM NaCl, 2 mM DTT, one site specific binding with Hill slope, three technical replicates per point. As to the method: Figure 2. Analysis of the interaction between KLHL3 and WNK3 variants by fluorescence polarisation. Purified GST-KLHL3 a.a. 298–587 was diluted appropriately and mixed at a 1 : 1 volume ratio with 20 nM Lumino-Green-labelled WNK3 peptides to the concentration stated in the Figure, with the peptide concentration consistent at 10 nM. Fluorescence polarisation measurements were recorded and corrected to the fluorescent probe alone. Each data point represents three technical replicates. One site-specific binding with hill slope was assumed and the disassociation constant was obtained. Binding curves, assuming one-site-specific binding, were then generated with Prism6 using milli-polarization (mP) units. TEXT PRINTED IN THE PICTURE: WNK3 [a.a.537-547] […] E541: KD > 50 μM | WNK3 [a.a.537-547] pT541: KD > 50 μM
For fluorescence polarisation measurements of WNK3 variants, the Kelch domain of human KLHL3 (a.a. […]) was cloned into the bacterial expression vector pGEX6P-1 (MRC-PPU plasmid DU44387) and expressed as a GST fusion protein as previously described. Briefly, E. coli BL21 cells were transformed with plasmid DNA and grown at 37°C in LB broth containing 100 µg/ml ampicillin until OD600 reached 0.6. Cells were then cultured at 16°C for a further 16 h in the presence of 50 µM IPTG for protein induction. Harvested cells were lysed by sonication and the lysate clarified by centrifugation. GST fusion protein was affinity purified using 0.5 ml glutathione–sepharose beads and eluted in buffer (50 mM Tris–HCl pH 7.5, 150 mM NaCl, 2 mM DTT) containing 20 mM glutathione.
Fluorescence polarisation measurements were performed at 25°C using KLHL3 Kelch domain (GST-KLHL3, a.a. 298–587, MRC-PPU plasmid DU44387) buffered in 50 mM Tris–HCl pH 7.5, 150 mM NaCl, 2 mM DTT. All peptides (ECEETEVDQHV, WNK3 a.a. 537–547), (ECEET(P)EVDQHV, WNK3 a.a. 537–547, Thr541 is phosphorylated), and (ECEEEEVDQHV, WNK3 a.a. 537–547, Thr541 is mutated to Glu) were conjugated to the Lumio green fluorophore via an N-terminal linker (CCPGCCGGGG) and dialysed into assay buffer before use. Samples were prepared with 10 nM Lumio-green labelled peptide and the indicated concentration of protein in a final volume of 30 µl. Fluorescence polarisation measurements were recorded using a BMG PheraStar plate reader, with an excitation wavelength of 485 nm and an emission wavelength of 538 nm, and measurements were corrected to the fluorescent probe alone. Data analysis and graphing were performed in GraphPad Prism6. One Site Specific binding with Hill Slope was assumed (model Y = Bmax × X^h/KD^h + X^h) and the disassociation constant, and associated standard error was obtained.
In general terms: In fluorescence polarisation assays a small probe gives low polarisation when free and higher when bound to something large.

In assay [2] the target is Lumio green-labelled WNK3 degron peptide (…, WNK3 a.a. 537–547) (human). The assay can be described thus: fluorescence polarisation; 10 nM Lumio green-labelled WNK3 peptide titrated with GST-KLHL3 Kelch domain; 25°C; 50 mM Tris–HCl pH 7.5, 150 mM NaCl, 2 mM DTT; one site specific binding with Hill slope.
In assay [3] the target is Lumio green-labelled phospho-WNK3 peptide (ECEET(P)EVDQHV, WNK3 a.a. 537–547, Thr541 phosphorylated) (human). The description is as above.
Assay [4] deals with WNK3 protein levels in HEK293 cells co-transfected with KLHL3-FLAG. Kind of assay: KLHL3-mediated degradation of WNK3 on co-transfection, immunoblotting for WNK3 protein levels. Format: cell-based. As to conditions: WNK3-HA wild type or mutant with increasing KLHL3-FLAG, 48 h post transfection, immunoblot, three independent experiments, mean ± SEM. As to the method:
Figure 3. T541E substitution in WNK3 affects its KLHL3-targeted degradation in HEK293 cells. (A) WNK3-HA protein levels were investigated in HEK293 cells transfected with either wild type or mutant constructs and increasing concentrations of KLHL3-FLAG. A representative blot is presented. (B) Quantitative results of three independent experiments. Data are mean ± SEM. * P < 0.01, ** P < 0.0005.
HEK293 cells (ATCC® CRL-1573) were grown in Dulbecco's modified Eagle's medium (DMEM) supplemented with 10% fetal bovine serum to 70–80% confluence and transfected using Lipofectamine 2000 (Life Technologies, Inc.) with wild type or mutant WNK3-HA [46] and with different concentrations of KLHL3-FLAG [42]. Forty-eight hours post transfection, cells were lysed and protein concentration was quantified by the BCA protein assay (Pierce). Samples were diluted in Laemmli buffer and subjected to SDS–PAGE. Proteins were transferred to PVDF membranes which were then blocked for 1 h in 10% (w/v) non-fat milk dissolved in TBS- Tween 20 0.1% (TBSt). Antibodies were diluted in 5% (w/v) non-fat milk-TBSt. Incubation with HRP-coupled primary antibodies was performed overnight. Immunoblots were developed using radiographic film.
Lysis buffer: 50 mM Tris–HCl (pH 7.5), 1 mM EGTA, 1 mM EDTA, 50 mM sodium fluoride, 5 mM sodium pyrophosphate, 1 mM sodium orthovanadate, 1% (w/v) IGEPAL CA-630, 270 mM sucrose, 0.1% (v/v) 2-mercaptoethanol, and protease inhibitors (Complete tablets (Roche Applied Science).
(In general: In western blotting, separated proteins are transferred to a membrane and probed.)

For assay [5], the target named is T2, KLHL3 Kelch domain (a.a. 298–587) (human, UniProt Q9UH77-1 298-587).
T2 chain: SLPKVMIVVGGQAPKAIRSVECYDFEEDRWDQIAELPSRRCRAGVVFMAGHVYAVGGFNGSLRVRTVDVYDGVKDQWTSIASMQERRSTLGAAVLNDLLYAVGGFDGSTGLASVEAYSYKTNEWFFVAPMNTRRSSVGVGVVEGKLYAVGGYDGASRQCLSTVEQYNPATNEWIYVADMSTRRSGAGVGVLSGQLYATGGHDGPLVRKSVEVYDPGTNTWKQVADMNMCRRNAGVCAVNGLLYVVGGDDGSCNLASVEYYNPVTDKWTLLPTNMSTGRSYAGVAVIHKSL
Kind of assay: FP; 0 mM Cl-.

Assay [6] addresses T2, KLHL3 Kelch domain (a.a. 298–587). The assay can be described thus: FP; 150 mM F-.
Assay [7] shares this target. Kind of assay: FP; 18 mM Cl-.
Assay [8] shares this target. The assay can be described thus: FP; 37 mM Cl-.
Assay [9] has the same target. The assay can be described thus: FP; 75 mM Cl-.
The target is the same in assay [10]. The assay can be described thus: FP; 150 mM Cl-.
Assay [11] shares this target. Kind of assay: FP; 2.4 mM Cl-.
For assay [12] the target is unchanged. Kind of assay: FP; 4.7 mM Cl-.
For assay [13] the target is unchanged. Kind of assay: FP; 9.5 mM Cl-.
Assay [14] addresses T3, KLHL3 Kelch domain (a.a. 298–587) (human, UniProt Q9UH77-1 298-587).
T3 construct: Kelch-like protein 3 (KLHL3), human, Kelch domain, a.a; 298–587; Vector pNIC28-Bsa4; the hexahistidine tag was cleaved with TEV protease; It is not clear whether Addgene #110251 names the vector or the construct; also called KLHL3 (a.a. 298–587); source: E. coli BL21(DE3)-pRARE, purified (nickel-sepharose, SEC, TEV cleavage); not shown: His6, N-terminal, cleaved
T3 sequence (looked up): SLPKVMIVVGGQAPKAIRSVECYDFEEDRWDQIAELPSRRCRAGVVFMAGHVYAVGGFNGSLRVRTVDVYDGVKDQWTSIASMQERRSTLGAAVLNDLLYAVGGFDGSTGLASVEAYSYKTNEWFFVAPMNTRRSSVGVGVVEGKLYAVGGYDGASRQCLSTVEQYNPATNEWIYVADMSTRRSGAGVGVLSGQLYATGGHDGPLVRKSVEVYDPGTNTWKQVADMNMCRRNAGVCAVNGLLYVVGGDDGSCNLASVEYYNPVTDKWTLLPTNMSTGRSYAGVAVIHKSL
The assay can be described thus: fluorescence polarisation; 10 nM Rhodamine-110 labelled peptide with KLHL3 (a.a. 298–587) from 0 to 3200 or 6400 nM; 25°C; test of the effect of chloride concentration; one site total fit. As to conditions: both partners purified.

Assay [15] has as its target T4, GST-KLHL3 Kelch domain (a.a. 298–587) (human, UniProt Q9UH77 298-587).
T4 chain: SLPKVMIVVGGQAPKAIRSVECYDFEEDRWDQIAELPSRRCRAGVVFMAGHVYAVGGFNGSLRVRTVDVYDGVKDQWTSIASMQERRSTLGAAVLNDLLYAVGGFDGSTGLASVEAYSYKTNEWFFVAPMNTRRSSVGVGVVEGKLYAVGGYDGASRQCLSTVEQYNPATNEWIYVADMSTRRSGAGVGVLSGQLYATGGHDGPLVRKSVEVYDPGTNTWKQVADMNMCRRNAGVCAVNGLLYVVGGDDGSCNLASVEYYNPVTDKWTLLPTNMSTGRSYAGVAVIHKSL
Kind of assay: FP.

Where [16] appears, read: 10 nM Lumio-green labelled peptide (N-terminal linker CCPGCCGGGG), 30 µl, ex 485/em 538 nm, repeated at least twice.

Square brackets hold non-standard residues; d marks the D form. Ends that are not written are not given here. Peptide text beside a SMILES is read from it. Lumio green = fluorophore conjugated via N-terminal linker CCPGCCGGGG; Rhodamine‑110 = fluorophore on the N-terminus; pT = C[C@@H](OP(=O)(O)O)[C@H](N)C(=O)O

On to ECEETEVDQHV [WNK3 [a.a.537-547] WT], for which, in [1] (setting [16]), the Kd stood at 670 nM. This lies in the sub-micromolar range.
In the case of “GST-KLHL3 Kelch domain (a.a. 298–587) (from UniProt Q9UH77 298-587) (domain or fragment)”, the figures for the Kd in assay [2] and in [3] were 670 nM and greater than 50000 nM, respectively.
For “T541A: WNK3-HA mutant T541A transfected in HEK293 cells”, the “WNK3 levels / KLHL3-mediated degradation (in words)” value in assay [4] is “reduced KLHL3-mediated degradation of WNK3”.
As to `CC(C)[C@H](NC(=O)[C@H](Cc1c[nH]cn1)NC(=O)[C@H](CCC(N)=O)NC(=O)[C@H](CC(=O)O)NC(=O)[C@@H](NC(=O)[C@H](CCC(=O)O)NC(=O)[C@@H](NC(=O)[C@H](CCC(=O)O)NC(=O)[C@H](CCC(=O)O)NC(=O)[C@H](CS)NC(=O)[C@@H](N)CCC(=O)O)[C@@H](C)OP(=O)(O)O)C(C)C)C(=O)O` [WNK3 [a.a.537-547] pT541] (H-ECEE[pT]EVDQHV-OH; N-terminus and C-terminus assumed), the Kd in assay [1] (setting [16]) is greater than 50000 nM. In assay [1] (fluorescence polarisation, GST-KLHL3 a.a. 298–587, 10 nM Lumio-green labelled peptide, pH 7.5), the “KLHL3 interaction (in words)” value is reported as “too severely destabilised to measure a dissociation constant”.
On to “WNK3 T541E: WNK3-HA mutant T541E transfected in HEK293 cells”, for which the “WNK3 levels / KLHL3-mediated degradation (in words)” value in assay [4] is “noticeably resistant to degradation”.
On to “WNK3: wild type WNK3-HA transfected in HEK293 cells”, for which the “WNK3 levels / KLHL3-mediated degradation (in words)” value in assay [4] is on record as “significantly lower than in the absence of KLHL3, even at the lowest amounts of KLHL3 DNA used for transfection”.
ECEEEEVDQHV [WNK3 [a.a.537-547] E541]: the Kd in assay [1] (printed in Figure 2 picture, 10 nM Lumio-green labelled peptide) is greater than 50000 nM.

B1: Rhodamine-110 labelled WNK4 degron peptide (EPEEPEADQHQ) (peptide)
peptide: {Rhodamine‑110}-EPEEPEADQHQ
notes: WNK4 acidic degron motif, residues 557–567; also called 11-residue degron from WNK4; source: synthetic peptide (Fmoc solid phase, purified by HPLC)
With B1, the dissociation constant (Kd) came out at 700 nM in [5]; 300 nM in assay [6]; 600 nM in assay [7]; 600 nM in assay [8]; 600 nM in assay [9]; 700 nM in assay [10]. Besides, the Kd in assay [11], in assay [12] and in assay [13] was 600 nM in each case. The binding result in assay [14] is on record as “binds”.
In the case of {Lumio green}-CCPGCCGGGGECEEEEVDQHV (cysteine pairing not given here) [Lumio green-labelled WNK3 T541E peptide (ECEEEEVDQHV, WNK3 a.a. 537–547, Thr541 mutated to Glu)], the Kd in [15] is greater than 50000 nM.
Regarding {Rhodamine‑110}-ECEETEVDQHV [Rhodamine-110 labelled WNK3 degron peptide (ECEETEVDQHV)], the Kd came out at 1700 nM in [5]; 1100 nM in assay [6]; 1400 nM in [7]; 1500 nM in assay [8]; 1300 nM in assay [9]; 1300 nM in [10]. Moreover, the values for the Kd in assay [11], in [12] and in assay [13] were 1200 nM, 1700 nM and 1300 nM, respectively.

What is called Kd is the concentration at which binding is half-saturated. A higher Kd goes with a looser complex.
